Results on six molecules are retold here after publication PMC9461191 (Journal of Translational Medicine, 2022).

The target in one test is urelumab. The experiment in a line: flow cytometry on cells. The conditions noted are these: Ab 10 µg/ml (highest point of the titration); antigen transfected into Expi293 cells; parent: est. 17000; read off a plot.
Another test deals with HuB6. In words: flow cytometry on cells. As to conditions: Ab 10 µg/ml (highest point of the titration); antigen transfected into Expi293 cells; parent: est. 17000; read off a plot.
The target in the next test is utomilumab. In words: flow cytometry on cells. As to conditions: Ab 10 µg/ml (highest point of the titration); antigen transfected into Expi293 cells; parent: est. 14000; read off a plot.
A further test has as its target HuB6 (human). In words: SPR; HuB6 and human FcγRs; who was immobilised not given; n = 3.
Another test deals with T1, human 4-1BB ECD (Homo sapiens, UniProt Q07011).
T1 construct: human 4-1BB (CD137, TNFRSF9), extracellular domain, coupled to the CM5 chip for SPR; also called CD137; TNFRSF9
The experiment in a line: SPR; Biacore T200, 25 °C; human 4-1BB ECD amine-coupled on a CM5 chip to 300 RU; antibody from 80 μg/mL in two-fold dilutions injected at 30 μL/min; 1:1 Langmuir model. The conditions noted are these: both partners purified.

A further test addresses T2, mouse 4-1BB-ECD-mFc (Mus musculus, UniProt P20334).
T2 construct: mouse 4-1BB, UniProt P20334, extracellular domain; also called Mu4-1BB; murine 4-1BB; source: Expi293F, transfected, purified (MabSelect PrismA); not shown: Fc (mouse), C-terminal, kept
In words: ELISA; indirect ELISA; plates coated with 4-1BB-mFc (1 μg/mL mouse, 350 ng/mL cynomolgus) in carbonate buffer; serially diluted antibodies, room temperature 2 h; HRP goat anti-human Fc. The conditions noted are these: both partners purified.

The target in a further test is T3, Hu4-1BB-His (Homo sapiens, UniProt Q07011).
T3 construct: human 4-1BB (CD137, TNFRSF9), His-tagged, bought; No catalogue number is printed; also called human 4-1BB; source: bought: Acro biosystems
In words: BLI; Octet Red96, 25 °C; antibody loaded on AHC biosensors; Hu4-1BB-His 200-12.5 nM in 1 × PBS; 500 s association, 30 min dissociation. As to conditions: both partners purified.

For a further test, the target named is T4, cynomolgus 4-1BB-mFc (Macaca fascicularis, UniProt A9YYE7).
T4 construct: cynomolgus monkey 4-1BB, UniProt A9YYE7, extracellular domain; also called Cy4-1BB; cynomolgus monkey 4-1BB; source: Expi293F, transfected, purified (MabSelect PrismA); not shown: Fc (mouse), C-terminal, kept
In words: ELISA; indirect ELISA; plates coated with 4-1BB-mFc (1 μg/mL mouse, 350 ng/mL cynomolgus) in carbonate buffer; serially diluted antibodies, room temperature 2 h; HRP goat anti-human Fc. As to conditions: both partners purified.

HuB6 (human), sequence (heavy, as listed by the source, chain 1 of 2): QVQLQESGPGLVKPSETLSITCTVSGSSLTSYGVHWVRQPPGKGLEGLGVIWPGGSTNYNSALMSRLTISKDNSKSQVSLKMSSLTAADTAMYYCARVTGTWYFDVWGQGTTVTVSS
HuB6 (human), sequence (light, as listed by the source, chain 2 of 2): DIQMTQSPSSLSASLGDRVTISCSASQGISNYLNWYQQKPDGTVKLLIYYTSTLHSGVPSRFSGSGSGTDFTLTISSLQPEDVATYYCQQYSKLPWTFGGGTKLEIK
T2 sequence (P20334 24-187): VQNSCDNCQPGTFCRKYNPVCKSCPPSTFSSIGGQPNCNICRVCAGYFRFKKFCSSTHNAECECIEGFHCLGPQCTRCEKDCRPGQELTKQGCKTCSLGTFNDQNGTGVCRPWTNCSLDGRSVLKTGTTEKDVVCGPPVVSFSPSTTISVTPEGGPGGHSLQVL
T1 sequence (Q07011 24-186): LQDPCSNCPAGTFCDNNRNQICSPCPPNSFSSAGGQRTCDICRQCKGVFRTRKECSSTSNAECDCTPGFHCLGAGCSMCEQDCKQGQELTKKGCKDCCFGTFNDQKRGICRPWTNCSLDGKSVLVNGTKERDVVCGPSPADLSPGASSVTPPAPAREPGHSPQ

In the case of “wild-type (WT) human 4-1BB antigen on Expi293F cells (from UniProt Q07011) M101”, the response with urelumab worked out at 17000 Mean FITC; with HuB6 it was 19000 Mean FITC; with utomilumab, 2600 Mean FITC.
In the test with HuB6 (human), “human FcγRIA (from UniProt P12314 16-374) (receptor)” came in with a Kd of 8.86 nM, a koff of 0.0045 s⁻¹ and a kon of 531000 M⁻¹ s⁻¹.
For the molecule “wild-type (WT) human 4-1BB antigen on Expi293F cells (from UniProt Q07011) I132”, the response in the test with urelumab came to 17000 Mean FITC; in the test with HuB6 it was 20000 Mean FITC; with utomilumab, 3900 Mean FITC.
“wild-type (WT) human 4-1BB antigen on Expi293F cells (from UniProt Q07011) N42”: the response is 900 Mean FITC in the test with urelumab, 15000 Mean FITC with HuB6 and 13000 Mean FITC with utomilumab.

B1: urelumab (antibody, V domains shown)
VH: QVQLQQWGAGLLKPSETLSLTCAVYGGSFSGYYWSWIRQSPEKGLEWIGEINHGGYVTYNPSLESRVTISVDTSKNQFSLKLSSVTAADTAVYYCARDYGPGNYDWYFDLWGRGTLVTVSS
VL: EIVLTQSPATLSLSPGERATLSCRASQSVSSYLAWYQQKPGQAPRLLIYDASNRATGIPARFSGSGSGTDFTLTISSLEPEDFAVYYCQQRSNWPPALTFGGGTKVEIK
notes: IgG4; IgG4 mAb; also called BMS-663513; urelumab-IgG4; source: Expi293F, transfected, purified (MabSelect PrismA)
As for B1, the Kd was found to be 5.34 ± 0.49 nM in the test with human 4-1BB ECD and 5.76 ± 0.85 nM in the test with Hu4-1BB-His. For the same molecule, in the test with mouse 4-1BB-ECD-mFc, the binding result was “no binding”.

B2: utomilumab (antibody, V domains shown)
VH: EVQLVQSGAEVKKPGESLRISCKGSGYSFSTYWISWVRQMPGKGLEWMGKIYPGDSYTNYSPSFQGQVTISADKSISTAYLQWSSLKASDTAMYYCARGYGIFDYWGQGTLVTVSS
VL: SYELTQPPSVSVSPGQTASITCSGDNIGDQYAHWYQQKPGQSPVLVIYQDKNRPSGIPERFSGSNSGNTATLTISGTQAMDEADYYCATYTGFGSLAVFGGGTKLTVL
notes: IgG2; IgG2 mAb; also called PF-05082566; utomilumab-IgG2; source: Expi293F, transfected, purified (MabSelect PrismA)
Consider B2, for which, in the test with mouse 4-1BB-ECD-mFc, the binding result is reported as “no binding”. The EC50 with cynomolgus 4-1BB-mFc was found to be 0.038 nM.
